The assay has as its target T1, AIRE-PHD1 P326L mutant (human, UniProt O43918 293-346, P326L).
T1 sequence (looked up): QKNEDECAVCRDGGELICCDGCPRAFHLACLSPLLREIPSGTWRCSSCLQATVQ
The experiment in a line: NMR titration.

For the molecule ARTKQTARKST (peptide, UniProt P68431 2-12, looked up) [unmodified histone H3 peptide (residues 1-11)], the binding result is given as “binds”.

The values above are taken from paper PMC2923636 (Structure (London, England : 1993), 2009).
